Where two headings read alike, the source gives them in different places.
What was measured:
rhTSLP-hFc (human) [1] = assay: cell-based or functional assay
rhTSLP-hFc (human) [2] = assay: cell-based or functional assay; remark: listed apart in the source

rhTSLP-hFc (human), sequence (chain, as listed by the source limits assumed): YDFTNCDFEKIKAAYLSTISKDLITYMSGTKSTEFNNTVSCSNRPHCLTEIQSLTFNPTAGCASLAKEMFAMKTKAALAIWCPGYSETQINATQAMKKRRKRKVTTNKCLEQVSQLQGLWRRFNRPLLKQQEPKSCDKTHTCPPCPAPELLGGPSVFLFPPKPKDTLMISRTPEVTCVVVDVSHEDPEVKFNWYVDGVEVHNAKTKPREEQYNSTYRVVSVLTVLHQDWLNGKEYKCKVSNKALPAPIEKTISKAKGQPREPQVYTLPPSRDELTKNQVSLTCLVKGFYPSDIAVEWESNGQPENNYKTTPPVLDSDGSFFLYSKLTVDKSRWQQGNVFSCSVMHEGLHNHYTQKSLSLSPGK

**Q.** How did the IC50, 抑制TSLP刺激的293F转染细胞STAT5-荧光素酶活性 (rhTSLP-hFc (human) [1]) turn out when “人TSLP单抗Tezepelumab/MEDI9929(Amgen) (antibody)” was run?
**A.** 5.72 µg/mL

**Q.** What about the IC50, 抑制TSLP刺激的293F转染细胞STAT5-荧光素酶活性 (rhTSLP-hFc (human) [2]) of the same substance?
**A.** 7.04 µg/mL

Source: CN111196850A
